Test results: the RNAGym collection of RNA variant scans (doi:10.1073/pnas.2313332121)

B1: TPR t1 (parent)
chain: GACCAAUCUGCCCUCAGAGCUCGAGAACAUCUUCGGAUGCAGAGGAGGCAGGCUUCGGUGGCGCGAUAGCGCCAACGUCCUCAACCUCCAAUGCAUCCCACCACAUGAUGAUGCCUGAAGAGCCUUGGUUUUUUG

Variants of: B1
Experiment: polymerase ribozyme fitness, log enrichment relative to wild type (log ratio); higher = more active; in vitro selection for triplet polymerase activity
Procedure, shortened: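 Only genotypes with ≥10 input reads and ≥1 read per output were kept after Illumina sequencing of input and output libraries. These libraries were PCR-built, transcribed mutants of each subunit of a heterodimeric triplet polymerase ribozyme, each put through one triplicate in vitro selection round with frozen incubation at −7 °C, gel excision of extended constructs, streptavidin-bead capture and RT-PCR. Fitness is a logarithmic ratio of genotype enrichment to wild-type enrichment, from inverse-variance-weighted replicate averages, with the logarithm in base 2.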

Variant | polymerase ribozyme fitness (log ratio)
GACCAAUCUGCCCUCAGAGCUCGAGAACAUCUUCGGAUGCAGAGGAGGCAGGCUUCGGUGGCGCGAUAGCACCAACGUCCUGAACCUCCAAUGCAUCCCACCACAUGAUGAUGCCUUAAGAGCCUUGGUUUUUUG | -3.41
GACCAAUCUGCCCUCAGAGCUCGAGAACAUCUUCGGAUGCAGAGGAGGCAGGCUUCGGUGGCGCGAUAGCACCAACGUCCUCAACCUCUAAUGCAUCCCACCACAUGAUGAUGCCUGAAGAGCCUCGGUUUUUUG | -1.9
GACCAAUCUGCCCUCAGAGCUCGAGAACAUCUUCGGAUGCAGAGGAGGCAGGCUUCGGUGGCGCGAUAGCACCAACGUCCUCAAUCUCCAAUGCAUCCCACCACAUGAUGAUGCCUGAAGAGCCUUGUUUAUUUG | -3.17
GACCAAUCUGCCCUCAGAGCUCGAGAACAUCUUCGGAUGCAGAGGAGGCAGGCUUCGGUGGCGCGAUAGCACCAACGUCCUCAACCUCCAAUGCAUCCCACCACAUGAUGAUGCCUGAACAGCCUUAGUUGUUUG | 1.2
GACCAAUCUGCCCUCAGAGCUCGAGAACAUCUUCGGAUGCAGAGGAGGCAGGCUUCGGUGGCGCGAUAGCCCCAACGUCCUCAGCCUCCAAUGCAUCCCACCACAUGAUGAUGCCUGAAGAGCCUUGGUUUUAUG | -3.86
GACCAAUCUGCCCUCAGAGCUCGAGAACAUCUUCGGAUGCAGAGGAGGCAGGCUUCGGUGGCGCGAUAGCACCAACGUCCUCAACCUCCAAUGCAUCCCACCACAUGAUGAGGCCUGAAGAGCCUUGGUUUUUUG | -1.07
GACCAAUCUGCCCUCAGAGCUCGAGAACAUCUUCGGAUGCAGAGGAGGCAGGCUUCGGUGGCGCGAUAGCACCAACGUCCUCAACCUCCAAUGCAUCCCACCACAUGAUGACGCCUGAAGAGCCUUGGUUUUUUG | 0.03
GACCAAUCUGCCCUCAGAGCUCGAGAACAUCUUCGGAUGCAGAGGAGGCAGGCUUCGGUGGCGCGAUAGCACCAACGUCCUCAACCUCCAAUGCAUCCCACCACAUGAUGAUGCCCUAAGAGCCUUGGUUUUUUG | -2.83
GACCAAUCUGCCCUCAGAGCUCGAGAACAUCUUCGGAUGCAGAGGAGGCAGGCUUCGGUGGCGCGAUAGCACCAACGUCCUCAACCUCCAAUGCAUCCCACCACACGAUGAUGCCUGAAGAGCCUUGGUUUUUUG | -1.36
GACCAAUCUGCCCUCAGAGCUCGAGAACAUCUUCGGAUGCAGAGGAGGCAGGCUUCGGUGGCGCGAUAGCACCAACGUCCUCAACCUCCAAUGCAUCCCACCACAUGAUGAUGCCUGAAGAACCUUGGUUUUUUG | -1.18
GACCAAUCUGCCCUCAGAGCUCGAGAACAUCUUCGGAUGCAGAGGAGGCAGGCUUCGGUGGCGCGAUAGCACCAACGUCCUCAACCUCCAAUGGAUCCCACCACAUGGUGAUGCCUGAAGAGACUUGGUUUUUUU | -4.8
GACCAAUCUGCCCUCAGAGCUCGAGAACAUCUUCGGAUGCAGAGGAGGCAGGCUUCGGUGGCGCGAUAGCCCCGACGUCCUCAACCUCCACUCCAUCCGACCACUUGAUGGUGCCUGAAGAGCCUUGGUUUUUUG | -6.99
GACCAAUCUGCCCUCAGAGCUCGAGAACAUCUUCGGAUGCAGAGGAGGCAGGCUUCGGUGGCGCGAUAGCACCAACGUCCUCAACCUCCAAAGUAUCCCACCACAUGAUGAUGCGUGAAGAGCCUUGGUUUUUUG | -4.8
GACCAAUCUGCCCUCAGAGCUCGAGAACAUCUUCGGAUGCAGAGGAGGCAGGCUUCGGUGGCGCGAUAGCACCAACGUGCUCAACCUCCAAUGCAUCCCACCACAUGAUGAUGCCUGAAGAGCCUUGGUUUUUUG | -3.16
GACCAAUCUGCCCUCAGAGCUCGAGAACAUCUUCGGAUGCAGAGGAGGCAGGCUUCGGUGGCGCGAUAGCACCAACGUCCUCAACCUCCAAUGCAUCCGCCCACAUGAUGAUGCCUGAAGAGACUUGGUUUUUUG | -8.12
GACCAAUCUGCCCUCAGAGCUCGAGAACAUCUUCGGAUGCAGAGGAGGCAGGCUUCGGUGGCGCGAUAGCACCAACGUCCCCAACCUCCAAUGCAUCCCACCACAUGAUGAUGCUUGAAGAGCCUUGGUUUUUUG | -3.59
GACCAAUCUGCCCUCAGAGCUCGAGAACAUCUUCGGAUGCAGAGGAGGCAGGCUUCGGUGGCGCGAUAGCACCAACGUCCUCAACCUCCAAUGCAUCCCACCACAUGAUGAUGCCUCAAGAGCCUUGGUUUUUUG | -3.15
GACCAAUCUGCCCUCAGAGCUCGAGAACAUCUUCGGAUGCAGAGGAGGCAGGCUUCGGUGGCGCGAUAGCACCAACGUCCUUAACCUCCAAUGCAUCCCAACACAUGAUGAUGCCUGAAGAGCCUUGGUUUUUUG | -0.823
GACCAAUCUGCCCUCAGAGCUCGAGAACAUCUUCGGAUGCAGAGGAGGCAGGCUUCGGUGGCGCGAUAGCACCAACGUCCUCAACCUCUAAUGCAUCCCACCACAUGAUGAUGCCUGAAGAGCCUUGGUUUUUUG | -0.978
GACCAAUCUGCCCUCAGAGCUCGAGAACAUCUUCGGAUGCAGAGGAGGCAGGCUUCGGUGGCGCGAUAGCACCAACGUCCUCAACCUCCAAUGCAUCCCACCACAUGAUGAUGCCUGAAGAGCCUUGGUUUUUUU | -1.5
GACCAAUCUGCCCUCAGAGCUCGAGAACAUCUUCGGAUGCAGAGGAGGCAGGCUUCGGUGGCGCGAUAGCACCAACGUCCUCAACCUCCAACGCAUCCCACCACAUGAUGAUGCCUGAAGAGCCUUGGUUUUUUG | -2.39

Variant | polymerase ribozyme fitness (log ratio)
GACCAAUCUGCCCUCAGAGCUCGAGAACAUCUUCGGAUGCAGAGGAGGCAGGCUUCGGUGGCGCGAUAGCACCAACGUCCUCAACCUCCAAGGCAUCCCACCACAUGAUGAUGCCUGAAGAGCCUUGGUUUUUUG | -3.98
GACCAAUCUGCCCUCAGAGCUCGAGAACAUCUUCGGAUGCAGAGGAGGCAGGCUUCGGUGGCGCGAUAGCACCAACGUCCUCAACCUCCAAUGCAUCCCACCACAUGAUGAUGCCUGAACAGCCUUGGUUUUUUG | 0.139
GACCAAUCUGCCCUCAGAGCUCGAGAACAUCUUCGGAUGCAGAGGAGGCAGGCUUCGGUGGCGCGAUAGCACCAACGUCCUCAACCUCCAAUGUAUCCCACCACAUGAUGAUGCCUGAAGAGCCUUGGUUUUUUG | -1.55
GACCAAUCUGCCCUCAGAGCUCGAGAACAUCUUCGGAUGCAGAGGAGGCAGGCUUCGGUGGCGCGAUAGCACCAACGUCCUCAACCUCCAAUGCAUCGCACCACAUGAUGAUGCCUGAAGAGCCUUGGUUUUUUG | -6.1
GACCAAUCUGCCCUCAGAGCUCGAGAACAUCUUCGGAUGCAGAGGAGGCAGGCUUCGGUGGCGCGAUAGCACCAACGUUCUCAACCUCCAAUGCAUCUCACCACAUGAUGAUGCCUGAAGAGCCUUGGUUUUUUG | -1.99
GACCAAUCUGCCCUCAGAGCUCGAGAACAUCUUCGGAUGCAGAGGAGGCAGGCUUCGGUGGCGCGAUAGCACCAACGUCCUCAACCUCCAAUGCAUCCCAACACAUGAUGAUGCCUGAAGAGCCUUGGUUUUUUG | -2.55
GACCAAUCUGCCCUCAGAGCUCGAGAACAUCUUCGGAUGCAGAGGAGGCAGGCUUCGGUGGCGCGAUAGCACCAACGUCCUCAACCUCCAAUGCAUCCCAUCACAUGAUGAUGCCUGAAGAGCCUUGGUUUUUUG | -0.59
GACCAAUCUGCCCUCAGAGCUCGAGAACAUCUUCGGAUGCAGAGGAGGCAGGCUUCGGUGGCGCGAUAGCACCAACGUCCUCAACCGCCAAUGCAUCCCACCACAUGAUGAUGCCUGAAGAGCCUUGGUUUUUUG | -0.439
GACCAAUCUGCCCUCAGAGCUCGAGAACAUCUUCGGAUGCAGAGGAGGCAGGCUUCGGUGGCGCGAUAGCACCAACGACCUCAACCUCCAAUGCAUCCCACCACAUGAUGAUGCCUGAAGAGCCUUGGUUUUUUG | -0.645
GACCAAUCUGCCCUCAGAGCUCGAGAACAUCUUCGGAUGCAGAGGAGGCAGGCUUCGGUGGCGCGAUAGCACCAACGUCCUCAACCUCCAAUGCAUCCCACCAUAUGAUGAUGCCUGAAGAGCCUUGGUUUUUUG | -0.49
GACCAAUCUGCCCUCAGAGCUCGAGAACAUCUUCGGAUGCAGAGGAGGCAGGCUUCGGUGGCGCGAUAGCACCAACGUCCUCAACCUCCAAUGCAUCCCACCAAAUGAUGAUGCCUGAAGAGCCUUGGUUUUUUG | -2.33
GACCAAUCUGCCCUCAGAGCUCGAGAACAUCUUCGGAUGCAGAGGAGGCAGGCUUCGGUGGCGCGAUAGCACCAACGUCCUCAACCUCCAAUGCAUCCCACCACAUGAUGAUGUCUGAAGAGCCUUGGUUUUUUG | -2.27
GACCAAUCUGCCCUCAGAGCUCGAGAACAUCUUCGGAUGCAGAGGAGGCAGGCUUCGGUGGCGCGAUAGCACCAACGUCCUCAACCUCCAAUGCAUCCCACCACAUGAUGAUGCCUGAAGAGCCUUCGUUUUUUG | -1.54
GACCAAUCUGCCCUCAGAGCUCGAGAACAUCUUCGGAUGCAGAGGAGGCAGGCUUCGGUGGCGCGAUAGCACCAACGUCCGCAACCUCCAAUGCAUCCCACCACAUGAUGAUACCUGAAGAGUCUUGGUUUUUUG | -6.93
GACCAAUCUGCCCUCAGAGCUCGAGAACAUCUUCGGAUGCAGAGGAGGCAGGCUUCGGUGGCGCGAUAGCACCAACGUCCUCAACCUCCAAUGCAGCCCACCACAUGAUGAUGCCUGAAGAGACUUGGUUUUUUG | -0.833
GACCAAUCUGCCCUCAGAGCUCGAGAACAUCUUCGGAUGCAGAGGAGGCAGGCUUCGGUGGCGCGAUAGCACCAACGUCCUCAAGCUCCAAUGCAUCCCACCACAUGAUGAUGCCUGAAGAGCCUCGGUUUUUUG | -2.15
GACCAAUCUGCCCUCAGAGCUCGAGAACAUCUUCGGAUGCAGAGGAGGCAGGCUUCGGUGGCGCGAUAGCACCAACCUCCUCAACCUCCAAUGCAUCCCAGCACAUGAUGAUGCCUGAAGAGCCUUGGUUUUUUG | -2.79
GACCAAUCUGCCCUCAGAGCUCGAGAACAUCUUCGGAUGCAGAGGAGGCAGGCUUCGGUGGCGCGAUAGCACCAACGUCCUCAACCUCCAAUGCAUCCCACCACAUGAUCAUGCCUGAAGAGCCUUGGUUUUUUG | -4.27
GACCAAUCUGCCCUCAGAGCUCGAGAACAUCUUCGGAUGCAGAGGAGGCAGGCUUCGGUGGCGCGAUAGCCCCAACGUCCUCUACCUCCAAUGCAUCCCACCACAUGAUGAUGCCUGAAGAGCCUUGGUUUUUUG | -1.19
GACCAAUCUGCCCUCAGAGCUCGAGAACAUCUUCGGAUGCAGAGGAGGCAGGCUUCGGUGGCGCGAUAGCCCCAACGUCCUCAUCCUCCAAUGCAUCCCACCACAUGAUGAUGCCUGAAGAGCCUUGGUUUUUUG | -2.77
GACCAAUCUGCCCUCAGAGCUCGAGAACAUCUUCGGAUGCAGAGGAGGCAGGCUUCGGUGGCGCGAUAGCACCAACGUCCGCUACCUCCAAUGCAUCCCACCACAUGAUGAUGCCUGAAGAGCAUUGGUUUUUUG | -7.19
